# ± gives the standard deviation.
# Test: protein stability index of a GFP-peptide fusion (GPS, HEK-293T) (PSI 1-6); higher = more stable
# [1] = treatment: DMSO, c terminus: a fixed tail appended
# [2] = treatment: MLN4924 1 uM, 8 h, c terminus: a fixed tail appended
# 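Also: 24-mer peptide tiles fused after GFP, lentivirally expressed, FACS-sorted into six equal bins by GFP/DsRed ratio, decoded by Illumina sequencing, PSI is the read-weighted mean bin number.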
Sequence,protein stability index [1],protein stability index [2],"protein stability index (treatment: DMSO, c terminus: native)","protein stability index (treatment: MLN4924 1 uM, 8 h, c terminus: native)"
PECGEIFAHSSNLLRHQRIHTGER [ZNF263],3.88 ± 0.24,3.91 ± 0.073,,
GVSSVDSAFSSRGSLSLSFEREPS [RIPK4],4.33 ± 0.77,4.8 ± 0.52,,
YKCLECGKAFSQNSGLINHQRIHT [ZNF24],4.95 ± 0.23,4.57 ± 0.26,,
LRQLRELEEQFALEAGGYQAGAAR [PRPH],4.07 ± 0.3,4.24 ± 0.084,,
SQPGNAVIDKETIDLLAFTSVAEL [SDE2],3.43 ± 0.3,3.46 ± 0.32,,
APLTISRVHAGSKAALAALCPGDL [PDLIM4],3.62 ± 0.37,3.65 ± 0.28,,
NCPGQYTFSMPSDSHVSSCSEDWV [CD69],3.8 ± 0.21,4.06 ± 0.22,,
IDKNTQLTLQVYREQADSCREQLD [TRIM14],4.58 ± 0.21,4.18 ± 0.79,,
EKEMQKMNPYKIDIGAVYSHRPNQ [PRIM1],3.64 ± 0.43,3.44 ± 0.32,,
VEGAMHIQECVPEDLELKKKIFAQ [CRYL1],4.74 ± 0.45,4.27 ± 0.2,,
IPAAVLAGFTGSGPIQLWQFLLEL [ETS2],2.69 ± 0.62,2.5 ± 0.25,,
KEYEKALKYVRGLLQTEPQNNQAK [FIS1],2.86 ± 0.14,3 ± 0.45,,
TVTSLQVPVLKPMDLMVEVSPRRI [PPP2R2C],2.52 ± 0.18,2.65 ± 0.32,,
MGWEGPNSRVDDTFWASWRAFAQI [MIR22HG],2.45 ± 0.28,2.21 ± 0.17,,
VLGEDVIVNDELYLNGASVLPHKS [GMPPB],4.23 ± 0.28,4.31 ± 0.18,,
KEDQFGRTPLMYCVLADRLDCADA [INVS],3.12 ± 0.41,3.26 ± 0.3,,
RDLPDTPRRFTFYPCVLATEGFTS [TRIM39],2.56 ± 0.21,2.5 ± 0.2,,
LIRYICGVVHPSNEVLSSDILPRW [INTS3],2.66 ± 0.26,2.56 ± 0.49,,
LVAEILPAPGKLLGPCVVGYGIYY [SAT2],2.66 ± 0.94,2.53 ± 0.44,,
IPQGICPVGRSWHSLTPVSSDHLF [KLHDC2],2.68 ± 0.28,2.52 ± 0.21,,
VPPKDSAPKDSAPQDLAPQVSAHH [TBC1D10A],5.47 ± 0.19,5.4 ± 0.18,,
LVKKLQDSVLERWVNDPQRMDKRT [GOLPH3L],2.69 ± 0.14,2.93 ± 0.29,,
FIWFVCSLVYYGLTLSAGDLGGSI [SLC22A15],3.46 ± 0.52,3 ± 0.78,,

Sequence,protein stability index [1],protein stability index [2],"protein stability index (treatment: DMSO, c terminus: native)","protein stability index (treatment: MLN4924 1 uM, 8 h, c terminus: native)"
SEDRRSRHCPYLDTINRSVLDFDF [USP39],3.18 ± 0.074,3.44 ± 0.3,,
TDLPECEQSSARQKASLLIQQALT [TCF25],3.47 ± 0.36,3.66 ± 0.36,,
LEAEIATYRRLLEDGEDFNLGDAL [KRT18],4.41 ± 0.15,4.53 ± 0.25,,
AVQAQAGWLQHDFGHLSVFSTSKW [FADS1],2.23 ± 0.18,2.29 ± 0.33,,
VLGIQVKCFHEIITIGYRVYHSYD [CDS1],3.25 ± 0.25,3.04 ± 0.17,,
IAIARLRGSDLKVLEVTEESIDFD [FBXO33],2.73 ± 0.3,2.77 ± 0.47,,
PLQDFPNSISSDKEATVPCTEILT [MIA2],4.55 ± 0.24,4.54 ± 0.24,,
STVKTETISFGSVSPGGVKLEIST [EPB41L3],3.19 ± 0.58,3.06 ± 0.42,,
SLKGSLSVEEQLSLISGCPNIQEA [CRYL1],4.18 ± 0.3,4.12 ± 0.36,,
TLLSVLKREAGNLTKATAPDQKSS [SSNA1],2.69 ± 0.13,2.83 ± 0.3,,
KLFYFKIWAFLDVSFVERILKSQK [FBXO39],2.62 ± 0.74,2.47 ± 0.5,,
TMDGEGTLFQTESPQSGSILTEET [PBXIP1],5.44 ± 0.066,5.43 ± 0.17,,
EQDRIPEVHVPPSSAVSGVKEWFG [MIA2],4.35 ± 0.099,4.46 ± 0.35,,
CFPSTQKPTEPSVPVQPLLPESLA [FBF1],4.14 ± 0.23,4.16 ± 0.15,,
HALATRASDYSKKSNVLKLKTADW [PSD2],3.13 ± 0.18,3.17 ± 0.17,,
PNCFRKDPDINMHPFFFALGKILS [FADS1],2.1 ± 0.51,2.33 ± 0.5,,
LISKLPYIHFFHTVLKQIAPEYFE [DENND6A],2.64 ± 0.28,2.37 ± 0.63,,
LSTKKSPCAGSTSLSHSPGCSSTQ [LCOR],4.35 ± 0.22,4.27 ± 0.12,,
CGACLTQLFFFHLFVGVDCFLLTA [OR3A1],3.07 ± 0.2,3.02 ± 0.33,,
TCLPLGVLMKGQHLHLETFKAVLD [PRAME],2.36 ± 0.25,2.32 ± 0.32,,
DQENFQGKRMEFTSSCPNVSERSF [CRYBA1],4.49 ± 0.12,4.46 ± 0.24,,
DFTLSKTNMARIREIMEKFGKQPV [CPXM2],2.71 ± 0.088,2.62 ± 0.33,,
EAVTCGNTEVPARNLYAYIQKLTQ [PTPRD],2.81 ± 0.19,2.96 ± 0.36,,

Sequence,protein stability index [1],protein stability index [2],"protein stability index (treatment: DMSO, c terminus: native)","protein stability index (treatment: MLN4924 1 uM, 8 h, c terminus: native)"
FMHSRNLYILGNFMQLKCFSSQKL [PNLIPRP1],3.11 ± 1.1,2.53 ± 0.74,,
RDSESTRHDSETEDMLWDDLLHGP [PHTF1],5.49 ± 0.31,5.4 ± 0.2,,
ATIFALSTMTSSVQIYNLSQNIQE [ATL3],3.03 ± 0.76,3.27 ± 0.71,,
TEELIVQTKQVYDAVGMLGIEEVT [NLN],4.23 ± 0.17,4.1 ± 0.45,,
EFYHDEFKRWIYLNDQNLCIPASS [GAN],2.75 ± 0.28,2.74 ± 0.13,,
HGVLSAEGFLFVFGGQDENKQTLS [GAN],2.43 ± 0.27,2.65 ± 0.073,,
SPLHLVQMPPVIVETARSHQRSSS [PI4K2A],4.22 ± 0.18,4.24 ± 0.2,,
LKVRYRERITILRGNHESRQITQV [PPP2CA],2.37 ± 0.19,2.42 ± 0.32,,
KIEGHQDAVTAALLIPKEDGVITA [WDFY1],4.35 ± 0.23,4.4 ± 0.28,,
LLMTSGVVLCEGVKWLSFHSGYDF [CNOT7],3.33 ± 0.37,2.9 ± 0.39,,
DLGNACWVHKHFTEDIQTRQYRSI [SRPK2],2.61 ± 0.23,2.72 ± 0.11,,
TEPPVALAPGPAPTRCLPGHKEEE [ESRRA],5.28 ± 0.12,5.36 ± 0.34,,
AAAAAAASAAAATAAFTTAKAAAL [SPAG8],2.33 ± 0.26,2.62 ± 0.75,,
VVEEVRRRATSGGKWPQVLFFPEG [LPCAT4],2.75 ± 0.31,3.24 ± 0.26,,
STWSDPSVNISLDNLLPGMQPSKP [CLINT1],4.3 ± 0.12,4.25 ± 0.099,,
GLQLPSTLPVSGNLLDVYSSQGVA [TFE3],3.15 ± 0.53,3.4 ± 0.36,,
ITCSSTMSYSCCLPSLGCRTSCSS [KRT34],2.19 ± 0.16,2.1 ± 0.32,,
QIEKKEKKLHKIQNKAQRQKDLIM [TAF7L],3.64 ± 0.32,3.85 ± 0.28,,
WDRNRRRGGGAAGAGGGGSGAGGG [KLHDC10],5.16 ± 0.5,5.3 ± 0.2,,
NNDDDEDEDDEDEDEDEDEDEDED [TAF7L],5.57 ± 0.15,5.55 ± 0.23,,
QAPGEENLLGEAAGGQDMADSMLM [HDAC6],5.36 ± 0.16,5.14 ± 0.36,,
KSSKYGEGHQAWIVGIVEKGNRTA [SEPHS2],2.56 ± 0.19,2.56 ± 0.42,,
LSVRSVFFGVFQSFVVLLYILDNE [CLPTM1],3.19 ± 0.75,2.92 ± 0.55,,

Sequence,protein stability index [1],protein stability index [2],"protein stability index (treatment: DMSO, c terminus: native)","protein stability index (treatment: MLN4924 1 uM, 8 h, c terminus: native)"
KGKKLYPVVSAVWGHCEVTMRYIN [SPSB4],2.43 ± 0.82,2.65 ± 0.6,,
AAVKENQMTPTNLAVCLAPSLFHL [DLC1],2.37 ± 0.06,2.61 ± 0.33,,
SAGGSRTPAMSSSSSSRVLLRQQL [TFE3],3.45 ± 0.24,3.32 ± 0.19,,
VRYNRVGILRRILRTLRDFPAEER [ANKRD9],2.4 ± 0.16,2.6 ± 0.56,,
YQILTLEKDQEQVVMNLDSRLLIF [GMCL1],2.77 ± 0.67,2.66 ± 0.7,,
RPASSGGAHTLVNHGYAEPAAGRE [KCNA3],4.7 ± 0.44,4.86 ± 0.23,,
RLQCPFEQELLRRQQRLNQLEKPP [FAM107A],3.93 ± 0.33,4.14 ± 0.18,,
GGFPIIRDQIFRYVHDPECVATTG [FBXO3],2.14 ± 0.29,2.7 ± 0.57,,
QHCRQSLASRIRSNKKMLLLVGGL [KLHL14],2.54 ± 0.83,2.24 ± 0.43,,
KPYGCVECGKAFSRSSILVQHQRV [ZNF24],2.07 ± 0.17,2.11 ± 0.2,,
GDASECPQATNAKDSGCSSPGAH [PPEF2],,,5.78 ± 0.1,5.57 ± 0.12
NPQSPPQDSSVTSKRNIKKGAVPR [HDAC6],4.99 ± 0.43,5.14 ± 0.38,,
TPLASSTDHQTPPTSPVQGTTPQI [HDAC6],5.17 ± 0.16,5.03 ± 0.16,,
TQEQARKEFQQVFIPECNDDGTYS [SMOC2],4.94 ± 0.27,4.84 ± 0.18,,
APQNSFSAKLAPHYFHSISYKIEE [KCNK9],3.21 ± 0.12,3.34 ± 0.16,,
YRHLLEGEDCKLPPQPCATACKPV [KRT36],3.97 ± 0.2,3.93 ± 0.11,,
SVKSKIGELEDESLNRACHQQNKI [CEP70],4.63 ± 0.41,4.7 ± 0.25,,
FGAAGVNRLSIGLQSLDDTELRLL [RSAD1],2.8 ± 0.094,2.76 ± 0.54,,
FHNCLIQLYCEKVQGLMKEYLLSF [VPS39],2.96 ± 0.26,3.2 ± 0.7,,
VRPGTPPDFILKVVIDKHPVRFFV [CTDNEP1],2.95 ± 0.49,2.92 ± 0.42,,
